The test has as its target human glyceraldehyde 3-phosphate dehydrogenase (GAPDH) (human) (UniProt P04406). The test is described as follows: cryo-EM structure; single particle analysis of GAPDH on EG-grid, 0.5 mg/ml; D2 symmetry applied.

Our source for the stoichiometry N values is publication PMC9908306.

By stoichiometry N is commonly meant a count of units in the complex or per binding partner.

Chain of human glyceraldehyde 3-phosphate dehydrogenase (GAPDH), P04406 1-335 (enzyme; other documents disagree on this pair) (P04406 whole entry): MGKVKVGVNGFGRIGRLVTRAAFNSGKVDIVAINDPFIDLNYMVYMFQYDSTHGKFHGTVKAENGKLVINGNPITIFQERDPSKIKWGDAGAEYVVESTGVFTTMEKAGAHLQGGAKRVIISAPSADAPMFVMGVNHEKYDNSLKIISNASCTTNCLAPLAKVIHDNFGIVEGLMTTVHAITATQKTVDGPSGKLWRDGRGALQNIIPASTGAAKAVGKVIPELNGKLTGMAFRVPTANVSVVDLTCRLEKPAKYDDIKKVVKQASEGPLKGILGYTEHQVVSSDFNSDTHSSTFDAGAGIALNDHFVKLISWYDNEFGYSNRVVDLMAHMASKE

“human glyceraldehyde 3-phosphate dehydrogenase (GAPDH), P04406 1-335 (enzyme; other documents disagree on this pair)” came in with a stoichiometry N of 4.
